B1: Azoarcus group I ribozyme (parent)
chain: GUGCCUUGCGCCGGGAAACCACGCAAGGGAUGGUGUCAAAUUCGGCGAAACCUAAGCGCCCGCCCGGGCGUAUGGCAACGCCGAGCCAAGCUUCGGCGCCUGCGCCGAUGAAGGUGUAGAGACUAGACGGCACCCACCUAAGGCAAACGCUAUGGUGAAGGCAUAGUCCAGGGAGUGGCGAAAGUCACACAAACCGG

Variants of: B1
Assay: reverse-splicing fitness (ratio to wild type); higher = more active; in vitro selection; Mg2+ level not given
Summary of the method: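 An in vitro group I ribozyme library with randomized positions was T7-transcribed and gel-purified. In triplicate, 10 pmol RNA in EPPS pH 7.5 was reacted with 50 pmoles of a 30-nt RNA substrate for 1 h at 37 °C across several added MgCl2 levels (1–48 mM), then stopped with EDTA. Products were reverse transcribed from a substrate-complementary primer, PCR-amplified and sequenced (HiSeq 4000). Fitness is a variant's read proportion after selection over that before, normalised to wild type.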
Work on GUGCCUUGCGCCGGGAAACCACGCAAGGGAUGGUGUCAAAUUCGGCGAAACCUAAGCGCCCGCCCGGGCGUAUGGCAACGCAGAGCCAAGCUUCGGCGCCUGCGCCGAUGCAGGUGUAGAGACUAGACGGCACCCACCUAAGGCCAACGAUAUGGUGAAGGCAUAGUCAAGGGAGGGGCGAAAGUCACACAAACCGG yielded a reverse-splicing fitness of 0.0103. With GUGCCUUGCGCCGGGAAACCACGCAAGGGAUGGUGUCAAAUUCGGCGAAACCUAAGCGCCCGCCCGGGCGUAUGGCAACGCAGAGCCAAGCUUCGGCGCCUGCGCCGAUGCAGGUGUAGAGACUAGACGGCACCCACCUAAGGCCAACGAUAUGGUGAAGGCAUAGUCAAGGGAGCGGCGAAAGUCACACAAACCGG the reverse-splicing fitness was 0.0113. With GUGCCUUGCGCCGGGAAACCACGCAAGGGAUGGUGUCAAAUUCGGCGAAACCUAAGCGCCCGCCCGGGCGUAUGGCAACGCAGAGCCAAGCUUCGGCGCCUGCGCCGAUGCAGGUGUAGAGACUAGACGGCACCCACCUAAGGCCAACGAUAUGGUGAAGGCAUAGUCAAGGGAGAGGCGAAAGUCACACAAACCGG the reverse-splicing fitness was 0.015. Work on GUGCCUUGCGCCGGGAAACCACGCAAGGGAUGGUGUCAAAUUCGGCGAAACCUAAGCGCCCGCCCGGGCGUAUGGCAACGCAGAGCCAAGCUUCGGCGCCUGCGCCGAUGCAGGUGUAGUGACUAGACGGCACCCACCUAAGGCAAACGCUAUGGUGAAGGCAUAGUCGAGGGAGUGGCGAAAGUCACACAAACCGG yielded a reverse-splicing fitness of 0.00388. With GUGCCUUGCGCCGGGAAACCACGCAAGGGAUGGUGUCAAAUUCGGCGAAACCUAAGCGCCCGCCCGGGCGUAUGGCAACGCAGAGCCAAGCUUCGGCGCCUGCGCCGAUGCAGGUGUAGUGACUAGACGGCACCCACCUAAGGCAAACGCUAUGGUGAAGGCAUAGUCUAGGGAGUGGCGAAAGUCACACAAACCGG the reverse-splicing fitness was 0.00555. In the case of GUGCCUUGCGCCGGGAAACCACGCAAGGGAUGGUGUCAAAUUCGGCGAAACCUAAGCGCCCGCCCGGGCGUAUGGCAACGCAGAGCCAAGCUUCGGCGCCUGCGCCGAUGCAGGUGUAGUGACUAGACGGCACCCACCUAAGGCAAACGCUAUGGUGAAGGCAUAGUCCAGGGAGAGGCGAAAGUCACACAAACCGG, the reverse-splicing fitness is reported as 0.00732. In the case of GUGCCUUGCGCCGGGAAACCACGCAAGGGAUGGUGUCAAAUUCGGCGAAACCUAAGCGCCCGCCCGGGCGUAUGGCAACGCAGAGCCAAGCUUCGGCGCCUGCGCCGAUGCAGGUGUAGUGACUAGACGGCACCCACCUAAGGCAAACGCUAUGGUGAAGGCAUAGUCCAGGGAGGGGCGAAAGUCACACAAACCGG, the reverse-splicing fitness is reported as 0.00382. With GUGCCUUGCGCCGGGAAACCACGCAAGGGAUGGUGUCAAAUUCGGCGAAACCUAAGCGCCCGCCCGGGCGUAUGGCAACGCAGAGCCAAGCUUCGGCGCCUGCGCCGAUGCAGGUGUAGUGACUAGACGGCACCCACCUAAGGCAAACGCUAUGGUGAAGGCAUAGUCCAGGGAGCGGCGAAAGUCACACAAACCGG the reverse-splicing fitness was 0.0115. In the case of GUGCCUUGCGCCGGGAAACCACGCAAGGGAUGGUGUCAAAUUCGGCGAAACCUAAGCGCCCGCCCGGGCGUAUGGCAACGCAGAGCCAAGCUUCGGCGCCUGCGCCGAUGCAGGUGUAGUGACUAGACGGCACCCACCUAAGGCAAACGCUAUGGUGAAGGCAUAGUCUAGGGAGGGGCGAAAGUCACACAAACCGG, the reverse-splicing fitness is reported as 0.00199. Work on GUGCCUUGCGCCGGGAAACCACGCAAGGGAUGGUGUCAAAUUCGGCGAAACCUAAGCGCCCGCCCGGGCGUAUGGCAACGCAGAGCCAAGCUUCGGCGCCUGCGCCGAUGCAGGUGUAGUGACUAGACGGCACCCACCUAAGGCAAACGCUAUGGUGAAGGCAUAGUCUAGGGAGAGGCGAAAGUCACACAAACCGG yielded a reverse-splicing fitness of 0.00613. GUGCCUUGCGCCGGGAAACCACGCAAGGGAUGGUGUCAAAUUCGGCGAAACCUAAGCGCCCGCCCGGGCGUAUGGCAACGCAGAGCCAAGCUUCGGCGCCUGCGCCGAUGCAGGUGUAGUGACUAGACGGCACCCACCUAAGGCAAACGCUAUGGUGAAGGCAUAGUCUAGGGAGCGGCGAAAGUCACACAAACCGG showed a reverse-splicing fitness of 0.00626. GUGCCUUGCGCCGGGAAACCACGCAAGGGAUGGUGUCAAAUUCGGCGAAACCUAAGCGCCCGCCCGGGCGUAUGGCAACGCAGAGCCAAGCUUCGGCGCCUGCGCCGAUGCAGGUGUAGAGACUAGACGGCACCCACCUAAGGCCAACGGUAUGGUGAAGGCAUAGUCCAGGGAGUGGCGAAAGUCACACAAACCGG gave a reverse-splicing fitness of 0.0226. With GUGCCUUGCGCCGGGAAACCACGCAAGGGAUGGUGUCAAAUUCGGCGAAACCUAAGCGCCCGCCCGGGCGUAUGGCAACGCAGAGCCAAGCUUCGGCGCCUGCGCCGAUGCAGGUGUAGAGACUAGACGGCACCCACCUAAGGCCAACGAUAUGGUGAAGGCAUAGUCCAGGGAGUGGCGAAAGUCACACAAACCGG the reverse-splicing fitness was 0.0144. With GUGCCUUGCGCCGGGAAACCACGCAAGGGAUGGUGUCAAAUUCGGCGAAACCUAAGCGCCCGCCCGGGCGUAUGGCAACGCAGAGCCAAGCUUCGGCGCCUGCGCCGAUGCAGGUGUAGAGACUAGACGGCACCCACCUAAGGCCAACGAUAUGGUGAAGGCAUAGUCCAGGGAGGGGCGAAAGUCACACAAACCGG the reverse-splicing fitness was 0.00856. For GUGCCUUGCGCCGGGAAACCACGCAAGGGAUGGUGUCAAAUUCGGCGAAACCUAAGCGCCCGCCCGGGCGUAUGGCAACGCAGAGCCAAGCUUCGGCGCCUGCGCCGAUGCAGGUGUAGAGACUAGACGGCACCCACCUAAGGCCAACGAUAUGGUGAAGGCAUAGUCCAGGGAGAGGCGAAAGUCACACAAACCGG, the reverse-splicing fitness was 0.0105. Work on GUGCCUUGCGCCGGGAAACCACGCAAGGGAUGGUGUCAAAUUCGGCGAAACCUAAGCGCCCGCCCGGGCGUAUGGCAACGCAGAGCCAAGCUUCGGCGCCUGCGCCGAUGCAGGUGUAGAGACUAGACGGCACCCACCUAAGGCCAACGAUAUGGUGAAGGCAUAGUCCAGGGAGCGGCGAAAGUCACACAAACCGG yielded a reverse-splicing fitness of 0.0176. GUGCCUUGCGCCGGGAAACCACGCAAGGGAUGGUGUCAAAUUCGGCGAAACCUAAGCGCCCGCCCGGGCGUAUGGCAACGCAGAGCCAAGCUUCGGCGCCUGCGCCGAUGCAGGUGUAGAGACUAGACGGCACCCACCUAAGGCCAACGCUAUGGUGAAGGCAUAGUCCAGGGAGUGGCGAAAGUCACACAAACCGG gave a reverse-splicing fitness of 0.212. In the case of GUGCCUUGCGCCGGGAAACCACGCAAGGGAUGGUGUCAAAUUCGGCGAAACCUAAGCGCCCGCCCGGGCGUAUGGCAACGCAGAGCCAAGCUUCGGCGCCUGCGCCGAUGCAGGUGUAGUGACUAGACGGCACCCACCUAAGGCAAACGCUAUGGUGAAGGCAUAGUCAAGGGAGGGGCGAAAGUCACACAAACCGG, the reverse-splicing fitness is reported as 0.00184. With GUGCCUUGCGCCGGGAAACCACGCAAGGGAUGGUGUCAAAUUCGGCGAAACCUAAGCGCCCGCCCGGGCGUAUGGCAACGCAGAGCCAAGCUUCGGCGCCUGCGCCGAUGCAGGUGUAGAGACUAGACGGCACCCACCUAAGGCCAACGAUAUGGUGAAGGCAUAGUCUAGGGAGCGGCGAAAGUCACACAAACCGG the reverse-splicing fitness was 0.0109. Variant GUGCCUUGCGCCGGGAAACCACGCAAGGGAUGGUGUCAAAUUCGGCGAAACCUAAGCGCCCGCCCGGGCGUAUGGCAACGCAGAGCCAAGCUUCGGCGCCUGCGCCGAUGCAGGUGUAGAGACUAGACGGCACCCACCUAAGGCCAACGAUAUGGUGAAGGCAUAGUCUAGGGAGAGGCGAAAGUCACACAAACCGG has a reverse-splicing fitness of 0.0138. With GUGCCUUGCGCCGGGAAACCACGCAAGGGAUGGUGUCAAAUUCGGCGAAACCUAAGCGCCCGCCCGGGCGUAUGGCAACGCAGAGCCAAGCUUCGGCGCCUGCGCCGAUGCAGGUGUAGAGACUAGACGGCACCCACCUAAGGCCAACGAUAUGGUGAAGGCAUAGUCUAGGGAGGGGCGAAAGUCACACAAACCGG the reverse-splicing fitness was 0.00856. For GUGCCUUGCGCCGGGAAACCACGCAAGGGAUGGUGUCAAAUUCGGCGAAACCUAAGCGCCCGCCCGGGCGUAUGGCAACGCAGAGCCAAGCUUCGGCGCCUGCGCCGAUGCAGGUGUAGUGACUAGACGGCACCCACCUAAGGCAAACGCUAUGGUGAAGGCAUAGUCGAGGGAGCGGCGAAAGUCACACAAACCGG, the reverse-splicing fitness was 0.00315. In the case of GUGCCUUGCGCCGGGAAACCACGCAAGGGAUGGUGUCAAAUUCGGCGAAACCUAAGCGCCCGCCCGGGCGUAUGGCAACGCAGAGCCAAGCUUCGGCGCCUGCGCCGAUGCAGGUGUAGUGACUAGACGGCACCCACCUAAGGCAAACGCUAUGGUGAAGGCAUAGUCGAGGGAGAGGCGAAAGUCACACAAACCGG, the reverse-splicing fitness is reported as 0.00421. With GUGCCUUGCGCCGGGAAACCACGCAAGGGAUGGUGUCAAAUUCGGCGAAACCUAAGCGCCCGCCCGGGCGUAUGGCAACGCAGAGCCAAGCUUCGGCGCCUGCGCCGAUGCAGGUGUAGUGACUAGACGGCACCCACCUAAGGCAAACGCUAUGGUGAAGGCAUAGUCGAGGGAGGGGCGAAAGUCACACAAACCGG the reverse-splicing fitness was 0.00234. For GUGCCUUGCGCCGGGAAACCACGCAAGGGAUGGUGUCAAAUUCGGCGAAACCUAAGCGCCCGCCCGGGCGUAUGGCAACGCAGAGCCAAGCUUCGGCGCCUGCGCCGAUGCAGGUGUAGAGACUAGACGGCACCCACCUAAGGCCAACGAUAUGGUGAAGGCAUAGUCGAGGGAGAGGCGAAAGUCACACAAACCGG, the reverse-splicing fitness was 0.0264. In the case of GUGCCUUGCGCCGGGAAACCACGCAAGGGAUGGUGUCAAAUUCGGCGAAACCUAAGCGCCCGCCCGGGCGUAUGGCAACGCAGAGCCAAGCUUCGGCGCCUGCGCCGAUGCAGGUGUAGAGACUAGACGGCACCCACCUAAGGCCAACGAUAUGGUGAAGGCAUAGUCGAGGGAGCGGCGAAAGUCACACAAACCGG, the reverse-splicing fitness is reported as 0.0219. GUGCCUUGCGCCGGGAAACCACGCAAGGGAUGGUGUCAAAUUCGGCGAAACCUAAGCGCCCGCCCGGGCGUAUGGCAACGCAGAGCCAAGCUUCGGCGCCUGCGCCGAUGCAGGUGUAGAGACUAGACGGCACCCACCUAAGGCCAACGAUAUGGUGAAGGCAUAGUCGAGGGAGGGGCGAAAGUCACACAAACCGG showed a reverse-splicing fitness of 0.00943. Variant GUGCCUUGCGCCGGGAAACCACGCAAGGGAUGGUGUCAAAUUCGGCGAAACCUAAGCGCCCGCCCGGGCGUAUGGCAACGCAGAGCCAAGCUUCGGCGCCUGCGCCGAUGCAGGUGUAGAGACUAGACGGCACCCACCUAAGGCCAACGAUAUGGUGAAGGCAUAGUCGAGGGAGUGGCGAAAGUCACACAAACCGG has a reverse-splicing fitness of 0.0093. Variant GUGCCUUGCGCCGGGAAACCACGCAAGGGAUGGUGUCAAAUUCGGCGAAACCUAAGCGCCCGCCCGGGCGUAUGGCAACGCAGAGCCAAGCUUCGGCGCCUGCGCCGAUGCAGGUGUAGAGACUAGACGGCACCCACCUAAGGCCAACGAUAUGGUGAAGGCAUAGUCAAGGGAGUGGCGAAAGUCACACAAACCGG has a reverse-splicing fitness of 0.00835. Variant GUGCCUUGCGCCGGGAAACCACGCAAGGGAUGGUGUCAAAUUCGGCGAAACCUAAGCGCCCGCCCGGGCGUAUGGCAACGCAGAGCCAAGCUUCGGCGCCUGCGCCGAUGCAGGUGUAGAGACUAGACGGCACCCACCUAAGGCCAACGAUAUGGUGAAGGCAUAGUCUAGGGAGUGGCGAAAGUCACACAAACCGG has a reverse-splicing fitness of 0.00921.
